Laboratory results from publication PMC5811392.

T1: p23 (Homo sapiens, UniProt Q15185 1-160)
T1 sequence: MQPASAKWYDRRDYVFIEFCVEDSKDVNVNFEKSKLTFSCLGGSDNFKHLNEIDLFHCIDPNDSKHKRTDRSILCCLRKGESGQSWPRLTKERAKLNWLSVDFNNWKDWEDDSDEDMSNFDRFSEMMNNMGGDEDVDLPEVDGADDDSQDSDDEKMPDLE

B1: p21 20-mer DNA, Cy5 (dsDNA)
DNA 1: GAACATGTTCGAACATGTTC
DNA 2: GAACATGTTCGAACATGTTC
B2: p21 20-mer DNA, unlabeled (dsDNA)
DNA 1: GAACATGTTCGAACATGTTC
DNA 2: GAACATGTTCGAACATGTTC

What was measured:
p53 DBD = p53 DBD (Homo sapiens, UniProt P04637 88-312); experiment: fluorescence anisotropy
Chain of p53 DBD (P04637 88-312): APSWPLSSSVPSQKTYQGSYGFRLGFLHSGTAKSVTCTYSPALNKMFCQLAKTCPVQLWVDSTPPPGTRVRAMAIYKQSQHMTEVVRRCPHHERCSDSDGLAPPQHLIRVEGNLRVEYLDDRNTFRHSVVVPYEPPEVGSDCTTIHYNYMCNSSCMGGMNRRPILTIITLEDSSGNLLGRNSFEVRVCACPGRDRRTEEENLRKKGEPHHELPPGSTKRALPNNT

p23 = molecular target: T1, p23; experiment: NMR DOSY

| Binder | Kd (p53 DBD) | binding result (p23) |
| --- | --- | --- |
| B1 | 45 ± 7 nM |  |
| B2 |  | no binding |
